Experimental data published in PMC10611751.

Biological target: Ankyrin-G ANK repeats 8-24
Assay: ITC; E-cadherin proteins in the syringe (e.g. 200 μM Trx-E-cadherin) titrated into AnkG in the cell (e.g. 20 μM Trx-AnkG R1-24); 25 °C; 50 mM Tris, 100 mM NaCl, 1 mM EDTA, 1 mM DTT, pH 7.8; one-site binding model

Chain of E-cadherin 751-775 (site-1) (P09803 751-775): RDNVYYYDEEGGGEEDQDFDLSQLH
Chain of E-cadherin C-terminal domain (residues 734-884) (P09803 734-884): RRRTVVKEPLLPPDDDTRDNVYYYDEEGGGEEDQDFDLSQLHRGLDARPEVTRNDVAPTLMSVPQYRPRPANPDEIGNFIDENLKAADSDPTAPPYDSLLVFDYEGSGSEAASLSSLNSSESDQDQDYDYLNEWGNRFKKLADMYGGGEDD
Chain of E-cadherin 828-869 (containing both site-2 and site-3) (P09803 828-869): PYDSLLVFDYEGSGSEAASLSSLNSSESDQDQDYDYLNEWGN

| Kd | Substance |
| --- | --- |
| 1.3 µM | E-cadherin 751-775 (site-1) (from UniProt P09803 751-775) (domain or fragment) |
| 1.5 µM | E-cadherin C-terminal domain (residues 734-884) (from UniProt P09803 734-884) (domain or fragment) |
| 2.5 µM | E-cadherin 828-869 (containing both site-2 and site-3) (from UniProt P09803 828-869) (domain or fragment) |
